Experimental data reported in patent publication US20240010712A1 (published 2024).

Columns and labels:
[1] = target: SF370 bacterial surface (Streptococcus pyogenes strain SF370 (emm1 serotype)); assay: binding to SF370 bacteria, fitted binding curve; unit printed nM-1; ±261; non-specific control IgG (Fc binding)
[2] = target: T1, M1 protein on the surface of Streptococcus pyogenes strain SF370 (Streptococcus pyogenes strain SF370 …); assay: binding to SF370 bacteria, fitted binding curve; unit printed nM-1; ±2.9; F(ab')2
T1 chain: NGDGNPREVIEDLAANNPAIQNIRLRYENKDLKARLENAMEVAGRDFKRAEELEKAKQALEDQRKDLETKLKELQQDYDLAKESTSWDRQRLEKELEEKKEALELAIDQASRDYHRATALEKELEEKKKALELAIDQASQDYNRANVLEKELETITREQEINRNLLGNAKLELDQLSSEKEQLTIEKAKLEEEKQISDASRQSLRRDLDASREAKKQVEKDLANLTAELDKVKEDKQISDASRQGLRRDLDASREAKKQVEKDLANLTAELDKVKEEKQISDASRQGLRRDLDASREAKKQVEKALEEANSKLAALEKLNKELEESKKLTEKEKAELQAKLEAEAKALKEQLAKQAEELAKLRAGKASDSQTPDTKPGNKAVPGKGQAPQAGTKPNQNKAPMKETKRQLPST

[3] = target: T1, M1 protein on the surface of …; assay: binding to SF370 bacteria, fitted binding curve; unit printed nM-1; ±30.3; Fab
[4] = target: T1, M1 protein on the surface of …; assay: binding to SF370 bacteria, fitted binding curve; unit printed nM-1; ±1.2; F(ab')2
[5] = target: T1, M1 protein on the surface of …; assay: as above

Xolair IgG
Kd [1]: 3170 nM

B1: Ab32 F(ab')2 fragments (IdeS-cleaved Ab32) (antibody, V domains shown)
VH: EVQLVESGGGLVRPGGSLRLSCVASGFMFNEYYMSWIRQAPGKGLEWISFISNAGTYTNYAESVKGRFTISRDNAKDSLYLEMNSLRGEDTAVYYCARQGFDTRGEDAFEIWGQGTMVTVSS
VL: EIVLTQSPATLSLSPGERATLSCRASQPLSGYLAWYQQKPGQAPRLLIYNASKRATGIPARFTGSGSGTDFTLTISSLESEDFAVYYCQQRSGWPSIFTFGPGTKVDIKR
Kd [2]: 9.1 nM

B2: Ab49 single Fabs (IgdE-cleaved Ab49) (Fab, V domains shown)
VH: EVQLVESGGGLVQPGGSLRLSCAASGFTVSINYMSWVRQAPGKGLQWVSVIYSGGSTYYADSVKGRFTISRDNSKNTLYLQMNSLRAEDTAMYYCVRDSRFWGIFDYWGQGTLVTVSS
VL: EIVLTQSPATLSLSPGERATLSCRASQSVSSYLAWYQRKPGQAPRLLIYDASNRATGIPARFSGSGSGTDFTLTISSLEPEDFAVYYCQQRSNWPPTFGQGTKVEIKR
Kd [3]: 208 nM

B3: Ab49 F(ab')2 fragments (IdeS-cleaved Ab49) (antibody, V domains shown)
VH: EVQLVESGGGLVQPGGSLRLSCAASGFTVSINYMSWVRQAPGKGLQWVSVIYSGGSTYYADSVKGRFTISRDNSKNTLYLQMNSLRAEDTAMYYCVRDSRFWGIFDYWGQGTLVTVSS
VL: EIVLTQSPATLSLSPGERATLSCRASQSVSSYLAWYQRKPGQAPRLLIYDASNRATGIPARFSGSGSGTDFTLTISSLEPEDFAVYYCQQRSNWPPTFGQGTKVEIKR
Kd [4]: 12.3 nM
Kd [5]: 12.3 nM
